According to US20030133935A1 (published 2003):

B1: p55-sf2 TNF receptor/IgG1 fusion protein (Fc fusion)
chain: QVCPQGKYIHPQNNSICCTKCHKGTYLYNDCPGPGQDTDCRECESGSFTASENHLRHCLSCSKCRKEMGQVEISSCTVDRDTVCGCRKNQYRHYWSENLFQCFNCSLCLNGTVHLSCQEKQNTVCTCHAGFFLRENECVSCSNCKKSLECTKLCLPQIGTLVTVSS
B2: chimeric mouse/human IgG1 anti-platelet mAb (7E3) (antibody, INN chains, looked up, V domains shown)
VH: EVQLQQSGTVLARPGASVKMSCEASGYTFTNYWMHWVKQRPGQGLEWIGAIYPGNSDTSYIQKFKGKAKLTAVTSTTSVYMELSSLTNEDSAVYYCTLYDGYYVFAYWGQGTLVTVSA
VL: EIVLTQSPVTLSVTPGDSVSLSCRASRDISNNLHWFQQTSHESPRLLIKYASQSMSGIPSRFSGSGSGTDFTLSINSVETEDFGMYFCQQTNSWPYTFGGGTKLEIK
modifications: IgG1

Target: human tumor necrosis factor-α (TNFα) (human, UniProt P01375 77-233)
Experiment: cell-based or functional assay

Chain of human tumor necrosis factor-α (TNFα) (P01375 77-233): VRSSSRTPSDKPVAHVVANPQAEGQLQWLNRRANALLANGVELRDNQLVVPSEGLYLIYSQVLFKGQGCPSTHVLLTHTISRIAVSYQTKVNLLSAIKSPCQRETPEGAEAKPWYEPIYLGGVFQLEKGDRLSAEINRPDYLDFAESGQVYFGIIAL

Binder | IC50: concentration of fusion protein required to inhibit 2 ng/ml (39.2 pM) TNFα by 50%, WEHI 164 cytotoxicity assay | IL-6 secreted by FS-4 fibroblasts (ng/ml), rhTNF 0.3 ng/ml, antibody 4 µg/ml (no antibody: 1.36) | IL-6 secreted by FS-4 fibroblasts (ng/ml), rhTNF 1.5 ng/ml, antibody 4 µg/ml (no antibody: 2.00) | IL-6 secreted by FS-4 fibroblasts (ng/ml), rhTNF 7.5 ng/ml, antibody 4 µg/ml (no antibody: 2.56)
B1 | 70 pM | – | – | –
B2 | – | 1.6 ng/mL | 1.96 ng/mL | 2.16 ng/mL
